Experimental data reported in paper PMC4622054.

Target: Human FcRn (hFcRn), soluble α-chain/β2m heterodimer, P55899;P61769
Assay: BLI (in vitro BLI-based FcRn platform)
Settings: chain shown with the change;, read off a plot

B1: CDA1 (actoxumab), fully human IgG1 mAb CDA (with HCV VH CDRs): VH CDR1-3 of CDA1 replaced by VH CDRs of HCV1; residues not printed (protein)
chain 1: QVQLVESGGGVVQPGRSLRLSCAASGFTFNNYGMHWVRQAPGKGLEWVALIWFDENNKDYTDSVKGRFTISRDNSKNTLYLQMNSLRAEDTAVYYCARDISLVRDAFIYFDFWGQGTVVTVSS
chain 2: DIQMTQSPSSVSASVGDRVTITCRASQGISSWLAWYQHKPGKAPKLLIYAASSLQSGVPSRFSGSGSGTDFTLTISSLQPEDFATYYCQQANSFPWTFGQGTKVEIK
B1 was tested, and the other: Predicted Human t1/2, β (parent: est. 690) was 15 days.

B2: HCV1, fully human IgG1 mAb HCV (with CDB Vk CDRs): Vk CDR1-3 of HCV1 replaced by Vk CDRs of CDB1; residues not printed (protein)
chain 1: EVQLLESGGGVVQPGRSLRLSCTASGFTFNNYGMHWVRQTPGKGLEWLAVIWFDENNKYYADSVRGRFTISRDNSKNTLFLQMNSLKTEDTAMYYCARDISLVRDAFIYFDFWGLGTLVTVSS
chain 2: ELTLTQSPATLSLSPGERATLSCRASQSVSSSYLAWYQQKPGQAPRLLIYGASNRATGIPARFSGSGSGTDFTLTISSLEPEDFAVYYCQQYGSSTWTFGQGTRLEIK
B2 gave an other: Predicted Human t1/2, β (parent: est. 270) of 13.3 days.

B3: HCV1, fully human IgG1 mAb HCV (with CDA VH CDRs): VH CDR1-3 of HCV1 replaced by VH CDRs of CDA1; residues not printed (protein)
chain 1: EVQLLESGGGVVQPGRSLRLSCTASGFSFSNYGMHWVRQTPGKGLEWLAVIWYDGSNEYYADSVRGRFTISRDNSKNTLFLQMNSLKTEDTAMYYCARWGMVRGVIDVFDIWGLGTLVTVSS
chain 2: ELTLTQSPATLSLSPGERATLSCRASQSVSSYLAWYQQKPGQAPRLLIYDASNRATGIPARFSGSGSGTDFTLTISSLEPEDFAVYYCQQRSNWITFGQGTRLEIK
In the case of B3, the other: Predicted Human t1/2, β (parent: est. 270) is reported as 22.9 days.
